Measurements from patent US9081020B2, “Mutant proteins and methods for selecting them” (Heptares Therapeutics Limited, priority 2008, dated 2015).
Read-outs that look alike come from different tables or passages of the source.

Assays:
[1] = system: M1 mAChR; format: physicochemical; conditions: for Stability (βOG in-situ) % L65A control / in-situ stability relative to L65A, in words: 0.82% β-octyl glucoside; for Stability (βOG in-situ) % L65A control: % loss(control)/% loss(mutant), mean±SEM of 3; for in-situ stability relative to L65A, in words: L65A background; for % 3H-NMS retained BOG: whole E. coli BL21 cells, single culture
Protocol: This concentration was determined by analysing wild-type M1 mAChRs expressed in the inner cell membranes of intact E. Coli strain BL21 cells. The cells were pre-labelled with the radiolabelled antagonist 3H—N-methyl scopolamine and resuspended to a pre-determined cell density (Absorbance at 600 nm=2.0) in a chosen buffer (in this case 50 mM sodium phosphate, 1 mM EDTA, pH 7.5). […] The wild-type M1 mAChRs were titrated by the addition of increasing concentrations of beta octyl glucoside dissolved in the same buffer for different times (e.g. 1 h, 2 h, 3 h, 5 h, 15 h) and at different temperatures (e.g. 4° C., 15° C.). The loss of specifically-bound radioligand was then measured after recovering the cells by centrifugation (15000×g, 15 min.). In the example, the centrifugation step was performed on duplicate 1 ml aliquots of the cells. The experiment was repeated 3 times. […] It will be appreciated that the cell density, detergent concentration and other parameters of the assay may be varied to adjust the loss of activity as appropriate.
(a) A state of in-situ destabilisation of a particular membrane protein in a particular cell membrane as a result of the addition of a particular concentration of a particular detergent, can be defined by the loss of the characteristic specific ligand binding activity of the membrane protein for a particular ligand of interest in the presence of a defined concentration of a particular detergent molecule or other solubilising agent.
A preferred version of the assay is destabilisation of a membrane protein-ligand complex in a detergent-enriched membrane. The membrane protein, either in a membrane preparation, or in intact cells in-vivo or ex-vivo, is pre-incubated with a labelled version of the ligand, the label, for instance, being a radioactive label, or a fluorescent label, and the binding step preferably being allowed to proceed to equilibrium, defined as the achievement of a time-invariant level of binding. To define membrane protein-independent, or non-specific, binding the binding step is performed with the addition of a second non-labelled ligand, called the competing ligand, having an appropriate membrane protein-specific pharmacology, at a concentration sufficient fully to occupy the binding sites of the membrane protein and thereby exclude the binding of the labelled ligand. The difference between the binding of the labelled ligand in the absence and presence of the competing ligand is defined as the specific binding of the labelled ligand. Measurement of binding requires a suitable method for separating and measuring bound ligand. Characteristically, this involves centrifugation of intact cells or membranes for a time and at a centrifugal force adequate to pellet them (for instance, 15000×g for 15 min in the case of E. coli cells, or 100,000×g for plasma membrane preparations), or filtration of a membrane suspension e.g. through a suitable filter paper such as glass fibre paper e.g. GF-B or GF-C followed by counting of radioactivity. Alternatively, it might involve the measurement of an optical signal such as enhancement of fluorescence emission in the case of fluorescent ligands.
To perform the in-situ destabilisation assay, a pre-determined concentration of the detergent or other destabilising agent of choice is mixed with a membrane or cell suspension containing the pre-labelled membrane protein in an appropriate buffer composition at a particular temperature and for a particular time, determined as described below.

[2] = system: M1 mAChR; assay: thermal stability (Tm) of partially purified [3H]NMS-labelled receptors in 0.1% dodecyl-β-maltoside; format: physicochemical, rat; conditions: for Tm (0.1% DDM): incubation time 30 min, mean±range/SEM; for thermal stability (Tm) relative to L65A, in words: partially purified mutants; for Tm (0.1% DDM) / thermal stability (Tm) relative to L65A, in words: 0.1% DDM
Protocol: For measurements of thermal melting temperature (Tm), [3H]NMS-labelled receptors were partially purified by immobilized metal ion affinity chromatography from cultures grown from single clones expressed in E. Coli BL21 cells, essentially as described in Hulme and Curtis, 1998 (21). Tm measurements were carried out after gel-filtration of partially purified receptors into 50 mM sodium phosphate, 5 mM β-mercaptoethanol and 0.1% dodecyl-β-maltoside (DDM), using an incubation time of 30 min. Values were tabulated as mean±range/SEM of 2 or more independent measurements (Table 3).

Row | Molecule | Stability (βOG in-situ) % L65A control ([1]; 3 h, 4° C.) | in-situ stability relative to L65A, in words [1] | Tm (0.1% DDM) [2] | thermal stability (Tm) relative to L65A, in words [2] | extra increment of stability (full thermal stability assay) ([2]; 0.1% dodecyl maltoside) | % 3H-NMS retained BOG ([1]; 0.82% BOG, 3 h, 4° C., listed as L148A 1) | % 3H-NMS retained BOG ([1]; 0.82% BOG, 3 h, 4° C., listed as L148A 2) | % loss/wt ([1]; 0.82% BOG, 3 h, 4° C., % loss relative to wild-type control) | mean % retained ([1]; 0.82% BOG, 3 h, 4° C., mean of the cultures)
1 | L65A/I73A: M1 mAChR double mutant, Ala mutation on L65A background (protein, UniProt P11229 1-460, looked up, variant L65A I73A) Muscarinic acetylcholine …: MNTSAPPAVSPNITVLAPGKGPWQVAFIGITTGLLSLATVTGNLLVLISFKVNTELKTVNNYFLASLACADLAIGTFSMNLYTTYLLMGHWALGTLACDLWLALDYVASNASVMNLLLISFDRYFSVTRPLSYRAKRTPRRAALMIGLAWLVSFVLWAPAILFWQYLVGERTVLAGQCYIQFLSQPIITFGTAMAAFYLPVTVMCTLYWRIYRETENRARELAALQGSETPGKGGGSSSSSERSQPGAEGSPETPPGRCCRCCRAPRLLQAYSWKEEEEEDEGSMESLTSSEGEEPGSEVVIKMPMVDPEAQAPTKQPPRSSPNTVKRPTKKGRDRAGKGQKPRGKEQLAKRKTFSLVKEKKAARTLSAILLAFILTWTPYNIMVLVSTFCKDCVPETLWELGYWLCYVNSTINPMCYALCNKAFRDTFRLLLLCRWDKRRWRKIPKRPGSVHRTPSRQC | 46 ± 2 % L65A control | significantly reduced stability | 27.0 ± 0.5 °C | reduced stability | – | – | – | – | –
2 | L65A/E397A: M1 mAChR double mutant, Ala mutation on L65A background (protein, UniProt P11229 1-460, looked up, variant L65A E397A) Muscarinic acetylcholine …: MNTSAPPAVSPNITVLAPGKGPWQVAFIGITTGLLSLATVTGNLLVLISFKVNTELKTVNNYFLASLACADLIIGTFSMNLYTTYLLMGHWALGTLACDLWLALDYVASNASVMNLLLISFDRYFSVTRPLSYRAKRTPRRAALMIGLAWLVSFVLWAPAILFWQYLVGERTVLAGQCYIQFLSQPIITFGTAMAAFYLPVTVMCTLYWRIYRETENRARELAALQGSETPGKGGGSSSSSERSQPGAEGSPETPPGRCCRCCRAPRLLQAYSWKEEEEEDEGSMESLTSSEGEEPGSEVVIKMPMVDPEAQAPTKQPPRSSPNTVKRPTKKGRDRAGKGQKPRGKEQLAKRKTFSLVKEKKAARTLSAILLAFILTWTPYNIMVLVSTFCKDCVPATLWELGYWLCYVNSTINPMCYALCNKAFRDTFRLLLLCRWDKRRWRKIPKRPGSVHRTPSRQC | 166 ± 16 % L65A control | more stable | 33.6 ± 0.2 °C | increased stability | – | – | – | – | –
3 | L65A/V409A: M1 mAChR double mutant, Ala mutation on L65A background (protein, UniProt P11229 1-460, looked up, variant L65A V409A) Muscarinic acetylcholine …: MNTSAPPAVSPNITVLAPGKGPWQVAFIGITTGLLSLATVTGNLLVLISFKVNTELKTVNNYFLASLACADLIIGTFSMNLYTTYLLMGHWALGTLACDLWLALDYVASNASVMNLLLISFDRYFSVTRPLSYRAKRTPRRAALMIGLAWLVSFVLWAPAILFWQYLVGERTVLAGQCYIQFLSQPIITFGTAMAAFYLPVTVMCTLYWRIYRETENRARELAALQGSETPGKGGGSSSSSERSQPGAEGSPETPPGRCCRCCRAPRLLQAYSWKEEEEEDEGSMESLTSSEGEEPGSEVVIKMPMVDPEAQAPTKQPPRSSPNTVKRPTKKGRDRAGKGQKPRGKEQLAKRKTFSLVKEKKAARTLSAILLAFILTWTPYNIMVLVSTFCKDCVPETLWELGYWLCYANSTINPMCYALCNKAFRDTFRLLLLCRWDKRRWRKIPKRPGSVHRTPSRQC | 34 ± 3 % L65A control | significantly reduced stability | 26.8 °C | reduced stability | – | – | – | – | –
4 | L65A/I74A: M1 mAChR double mutant, Ala mutation on L65A background (protein, UniProt P11229 1-460, looked up, variant L65A I74A) Muscarinic acetylcholine …: MNTSAPPAVSPNITVLAPGKGPWQVAFIGITTGLLSLATVTGNLLVLISFKVNTELKTVNNYFLASLACADLIAGTFSMNLYTTYLLMGHWALGTLACDLWLALDYVASNASVMNLLLISFDRYFSVTRPLSYRAKRTPRRAALMIGLAWLVSFVLWAPAILFWQYLVGERTVLAGQCYIQFLSQPIITFGTAMAAFYLPVTVMCTLYWRIYRETENRARELAALQGSETPGKGGGSSSSSERSQPGAEGSPETPPGRCCRCCRAPRLLQAYSWKEEEEEDEGSMESLTSSEGEEPGSEVVIKMPMVDPEAQAPTKQPPRSSPNTVKRPTKKGRDRAGKGQKPRGKEQLAKRKTFSLVKEKKAARTLSAILLAFILTWTPYNIMVLVSTFCKDCVPETLWELGYWLCYVNSTINPMCYALCNKAFRDTFRLLLLCRWDKRRWRKIPKRPGSVHRTPSRQC | 51 ± 3 % L65A control | significantly reduced stability | 28.8 ± 0.5 °C | no change | – | – | – | – | –
5 | I73L: M1 mAChR mutant, substitution of another aliphatic amino acid at Ile 73 (protein) MNTSAPPAVSPNITVLAPGKGPWQVAFIGITTGLLSLATVTGNLLVLISFKVNTELKTVNNYFLLSLACADLLIGTFSMNLYTTYLLMGHWALGTLACDLWLALDYVASNASVMNLLLISFDRYFSVTRPLSYRAKRTPRRAALMIGLAWLVSFVLWAPAILFWQYLVGERTVLAGQCYIQFLSQPIITFGTAMAAFYLPVTVMCTLYWRIYRETENRARELAALQGSETPGKGGGSSSSSERSQPGAEGSPETPPGRCCRCCRAPRLLQAYSWKEEEEEDEGSMESLTSSEGEEPGSEVVIKMPMVDPEAQAPTKQPPRSSPNTVKRPTKKGRDRAGKGQKPRGKEQLAKRKTFSLVKEKKAARTLSAILLAFILTWTPYNIMVLVSTFCKDCVPETLWELGYWLCYVNSTINPMCYALCNKAFRDTFRLLLLCRWDKRRWRKIPKRPGSVHRTPSRQC | – | – | – | – | 0.9 °C | – | – | – | –
6 | L148A: M1 mAChR mutant L148A (protein) MNTSAPPAVSPNITVLAPGKGPWQVAFIGITTGLLSLATVTGNLLVLISFKVNTELKTVNNYFLLSLACADLIIGTFSMNLYTTYLLMGHWALGTLACDLWLALDYVASNASVMNLLLISFDRYFSVTRPLSYRAKRTPRRAALMIGAAWLVSFVLWAPAILFWQYLVGERTVLAGQCYIQFLSQPIITFGTAMAAFYLPVTVMCTLYWRIYRETENRARELAALQGSETPGKGGGSSSSSERSQPGAEGSPETPPGRCCRCCRAPRLLQAYSWKEEEEEDEGSMESLTSSEGEEPGSEVVIKMPMVDPEAQAPTKQPPRSSPNTVKRPTKKGRDRAGKGQKPRGKEQLAKRKTFSLVKEKKAARTLSAILLAFILTWTPYNIMVLVSTFCKDCVPETLWELGYWLCYVNSTINPMCYALCNKAFRDTFRLLLLCRWDKRRWRKIPKRPGSVHRTPSRQC | – | – | – | – | – | 74% | 69% | 0.54 | 71.5%
7 | L65A/W101A: M1 mAChR double mutant, W101A on L65A background (protein, UniProt P11229 1-460, looked up, variant L65A W101A) Muscarinic acetylcholine …: MNTSAPPAVSPNITVLAPGKGPWQVAFIGITTGLLSLATVTGNLLVLISFKVNTELKTVNNYFLASLACADLIIGTFSMNLYTTYLLMGHWALGTLACDLALALDYVASNASVMNLLLISFDRYFSVTRPLSYRAKRTPRRAALMIGLAWLVSFVLWAPAILFWQYLVGERTVLAGQCYIQFLSQPIITFGTAMAAFYLPVTVMCTLYWRIYRETENRARELAALQGSETPGKGGGSSSSSERSQPGAEGSPETPPGRCCRCCRAPRLLQAYSWKEEEEEDEGSMESLTSSEGEEPGSEVVIKMPMVDPEAQAPTKQPPRSSPNTVKRPTKKGRDRAGKGQKPRGKEQLAKRKTFSLVKEKKAARTLSAILLAFILTWTPYNIMVLVSTFCKDCVPETLWELGYWLCYVNSTINPMCYALCNKAFRDTFRLLLLCRWDKRRWRKIPKRPGSVHRTPSRQC | 136 ± 9 % L65A control | more stable | 31.0 ± 0.4 °C | increased stability | – | – | – | – | –
